B1: Twister Ribozyme (parent)
chain: AACACUGCCAAUGCCGGUCCCAAGCCCGGAUAAAAGUGGAGGGGGCGG

The data set covers variants of B1. The data set can be described thus: self-cleavage, relative activity (ratio to wild type); higher = more cleavage; co-transcriptional.
Regarding AACACCGCCAAUGCCGGUCCCAAGCCCGGAUAAAUGUGGAGGGGGCGG, the self-cleavage is 0.619.
The same measure for AACUCUGCCAAUGCCGGUCCCAACCCCGGAUAAAAGUGGAGGGGGCGG: 0.0697; for AACACUGCCAAUGCCGGUCCCCAGCCCGGAUUAAAGUGGAGGGGGCGG: 0.858; for AACACUGCCAAUGCCGGUCCCAGGCCCGGAAAAAAGUGGAGGGGGCGG: 0.602.
In the case of AACACUGGCAAUGCCGGUCCCAAGCCCGGAUAAAAGUGGAUGGGGCGG, the self-cleavage worked out at 0.129.
For AACACUGCCAAUGCCGGUCCCAAGCCUGGAUAAAAGUGGAGGGGUCGG, the self-cleavage was determined as 0.638.
Regarding AACACUGCCAAUGCCGGUCCCAAGCCCGGUUAAAAGUGGAGGGCGCGG, the self-cleavage was found to be 0.963.
As for AACACUGCUAAUGCCGGACCCAAGCCCGGAUAAAAGUGGAGGGGGCGG, the self-cleavage was determined as 0.0726.
On to AACACUGCCAAUGCCGGUCCCAAGCCCGGAUAAAAGUGGAGGAGGCCG, for which the self-cleavage was 0.208.
Then AACACUGCCAACGCCGGUCCCAAGCCCGGAUAAAAGUGGCGGGGGCGG, with 0.177.
AACACUGCCAAUGCCGGUCCCAAGCCUGGAUAAAAUUGGAGGGGGCGG: the self-cleavage was 0.158.
Consider AACACUGCCAAUGCCGGUCCCAAGCCCGGAUAAAAGGGGAGGGGGCCG, for which the self-cleavage was determined as 0.306.
With AACACUGCCAAUGCUGCUCCCAAGCCCGGAUAAAAGUGGAGGGGGCGG, the self-cleavage amounted to 0.0992.
As for AACACUGACAAUGCCAGUCCCAAGCCCGGAUAAAAGUGGAGGGGGCGG, the self-cleavage worked out at 0.153.
Consider AACACUGCCAAUGCCGGUCCCAAGCCCGGAUAAAAGAGGACGGGGCGG, for which the self-cleavage worked out at 0.178.
Turning to AACACUGCCAAUGCCGGUCCCAAGCCCGGAUAAAAGUAGACGGGGCGG, the self-cleavage came to 0.157.
For AACACUCCCAAUGCCGGGCCCAAGCCCGGAUAAAAGUGGAGGGGGCGG, the self-cleavage amounted to 0.0952.
Then AACACUGCCAAUGCCGGUCGCAAGCCCCGAUAAAAGUGGAGGGGGCGG, with 0.171; and AAGACUGCCAAUGCCGGUACCAAGCCCGGAUAAAAGUGGAGGGGGCGG, with 0.0808; and AACACUGCCAAUGCCGGUCCAAAGCCCGGAUAAAGGUGGAGGGGGCGG, with 0.0738.
Then AACCCUGCCAAUGCCGGUCCCAAGCCCGGAUAAAAGUGGAGGGGGGGG, with 0.142; and AACACUGCCAAUGCCGGUCCCAAGCCCGCAUAAAAUUGGAGGGGGCGG, with 0.106; and AACACUGCCAAUGCCGGUCCCAAGCCCGGAGAAAAGUGGAGGGGGCGG, with 0.933.
With AACACUGCCAAUGCCGGACCCAAGCCCCGAUAAAAGUGGAGGGGGCGG, the self-cleavage came to 0.185.
For AACACAGCCAAUGCCGGUCCCAAGCCCGGACAAAAGUGGAGGGGGCGG, the self-cleavage came to 1.07.
As to AACACUGCCAAUGCCGGUCCCAAGCCUGGAUAAAAGUGGAGGAGGCGG, the self-cleavage amounted to 0.211.
Consider AACACUGCCAAUGCCGGGCCCAAGCCCGGAUAAAAGUGGAGGGGGCAG, for which the self-cleavage was 0.0493.
On to AACACUGCCAAUGCCGGUCACGAGCCCGGAUAAAAGUGGAGGGGGCGG, for which the self-cleavage was 0.0601.
The same measure for AACACUGCAAAUGCCGGUCCCAACCCCGGAUAAAAGUGGAGGGGGCGG: 0.119; for AACACUGCCAAUGCCGGUCCCAAGCACGGAUAGAAGUGGAGGGGGCGG: 0.257.
With AACACUGCCAAUGCCGGUCCCAAGCCCGGAUAAGAGUCGAGGGGGCGG, the self-cleavage was 0.632.
Turning to AACACUGCCAAUGCCGGUACCAAGCCCGGAUAAAAGUGGAGGGGGCGU, the self-cleavage came out at 0.206.
On to AACACUGCCAAUGUCGGGCCCAAGCCCGGAUAAAAGUGGAGGGGGCGG, for which the self-cleavage was determined as 0.0637.
Turning to AACACUGCCAAUGCCGGUCGCAAGCCCGGAUACAAGUGGAGGGGGCGG, the self-cleavage was 0.0661.
On to AACACUGCCAAUGCCGGUCACAAGCCCGGAUAAAAGAGGAGGGGGCGG, for which the self-cleavage is 0.0773.
The same measure for AACCCUGCCAAUGCCGGUCCCAAGCCCGGAUAAAAGUGGAGGGUGCGG: 0.134; for AACACUGCCAAUGCCGGUCCAAAGCUCGGAUAAAAGUGGAGGGGGCGG: 0.07.
As to AACACUGCCAAUGCCGGUCCCAAGCCCGGAUAAAAGUGGAGGGGGGGC, the self-cleavage came out at 1.55.
On to AACACUGCCAAUGCCGGUCCCAAGCCCGGGUAAAAGUGGAGGGGGCAG, for which the self-cleavage was 0.817.
For the variant AAUACUGCCAACGCCGGUCCCAAGCCCGGAUAAAAGUGGAGGGGGCGG, the self-cleavage was 0.39.
In the case of AACACUGCCAUUGCCGGUCCCAAGCCCGGAUAAAAGUGGACGGGGCGG, the self-cleavage is 0.374.
Consider AACACUGCCAAUGCCGGUCCCAAGCCCUGAUAAAGGUGGAGGGGGCGG, for which the self-cleavage was determined as 0.584.
As for AACAUCGCCAAUGCCGGUCCCAAGCCCGGAUAAAAGUGGAGGGGGCGG, the self-cleavage was 0.691.
Then AACACUGCCAAUGCCGGUCCCAGGCCCGGAUAAAAGUGGAGGGGGCAG, with 0.265.
As for AACACUGCCAAUGCCGGUCCCAAGCCCGGAUAAAAGCGUAGGGGGCGG, the self-cleavage was 0.11.
AACACUGCCAAUGCCGGUCCCACGCCCGGAUAAAAGUUGAGGGGGCGG: the self-cleavage worked out at 0.107.
For the variant AACACUGCCAAUGCCGGUCCGAAGACCGGAUAAAAGUGGAGGGGGCGG, the self-cleavage stood at 0.0791.
For AACACUGCCAACGCUGGUCCCAAGCCCGGAUAAAAGUGGAGGGGGCGG, the self-cleavage amounted to 1.09.
The same measure for AGCACUGCCAAUGCCGGUCCCAAGCCCGGAUAAAAGUGGAAGGGGCGG: 0.102; for AACACUGCCAAUGCCGGGCCCAAGCCCGGAUAUAAGUGGAGGGGGCGG: 0.0323.
AACACUGCCAAUGCCGGUCCCAAGCUCGGAUAAGAGUGGAGGGGGCGG: the self-cleavage came to 0.147.
Then AACACUGCCAAUGCCUGUCCCAAGCCCGGAUAAAAGAGGAGGGGGCGG, with 0.436; and AAGACUGCCAAUGCCGGGCCCAAGCCCGGAUAAAAGUGGAGGGGGCGG, with 0.0365; and AACACUGCCAAUGCGGGUCCCAAGCCCGGAUAAAAGUGGAGCGGGCGG, with 0.0975.

Source of the values: the RNAGym collection of RNA variant scans (doi:10.7554/elife.80360).
